This note sets out measurements from publication PMC8575367.

Assay in all cases: fluorescence anisotropy
A general note: In fluorescence polarisation assays a small probe gives low polarisation when free and higher when bound to something large.

The target of series [1] is T1, CPSF30-5F (five CCCH domains) (Bos taurus, UniProt O19137 33-170).
Series [2] deals with T1, CPSF30-5F (five CCCH domains). The source holds these as a separate data set.
For series [3] the target is unchanged. The source holds these as a separate data set.
Series [4] shares this target. This is another data set of the same source.
Series [5] shares this target. This is another data set of the same source.
For series [6] the target is unchanged. This is another data set of the same source.
Series [7] shares this target. This is another data set of the same source.
Series [8] has the same target. The source holds these as a separate data set.
For series [9] the target is unchanged. This is another data set of the same source.
For series [10] the target is unchanged. The source holds these as a separate data set.
The target of series [11] is CPSF30-FL (five CCCH + CCHC zinc knuckle) (Bos taurus, UniProt O19137 1-243).

Substitutions are numbered along the chain they refer to. Like-named read-outs stand apart in the source and are kept apart here.

T1 sequence (O19137 33-170): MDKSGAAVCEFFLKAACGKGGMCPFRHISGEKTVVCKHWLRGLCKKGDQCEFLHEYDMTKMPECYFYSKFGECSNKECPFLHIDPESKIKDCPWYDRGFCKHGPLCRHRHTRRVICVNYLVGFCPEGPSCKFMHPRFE
Sequence of CPSF30-FL (five CCCH + CCHC zinc knuckle) (O19137 whole entry): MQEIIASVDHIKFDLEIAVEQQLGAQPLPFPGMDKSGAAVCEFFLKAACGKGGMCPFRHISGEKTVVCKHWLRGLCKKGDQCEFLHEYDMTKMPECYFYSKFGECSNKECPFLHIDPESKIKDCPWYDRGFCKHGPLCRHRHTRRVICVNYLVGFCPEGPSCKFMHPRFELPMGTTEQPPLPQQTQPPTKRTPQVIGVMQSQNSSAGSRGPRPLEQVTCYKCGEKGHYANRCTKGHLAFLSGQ

B1: P6AtoC (ssRNA)
RNA: UCUCACUUUAAUAAUAACAAUCAUGCUUAU
Turning to B1, in [1], the “apparent K (half saturation)” value amounted to 309 ± 26 nM.

B2: P4AtoC (ssRNA)
RNA: B1 RNA with A16C, C18A
For B2, in series [1], the “apparent K (half saturation)” value was determined as 335 ± 38 nM.

B3: ARE-30 (ssRNA)
RNA: UUUAUUAUUUAUUUAUUAUUUAUUUAUUUA
Take B3: the “apparent K (half saturation)” value in [2] came out at 163 ± 10 nM.

B4: FABRY (ssRNA)
RNA: B1 RNA with A14U, C18G
Take B4: the binding result in [3] is recorded as “no binding”.

B5: ARE-18 (ssRNA)
RNA: UUAUUAUUUAUUUAUUUA
Turning to B5, in [4], the “apparent K (half saturation)” value is 671 ± 49 nM.

B6: Most freq fl (AAA flanks) (ssRNA)
RNA: B1 RNA with U12A, C18A, U21A
Take B6: in series [5], the “apparent K (half saturation)” value was found to be 226 ± 1.6 nM.

B7: ARE-16 (ssRNA)
RNA: AUUAUUUAUUUAUUUA
As to B7, in series [6], the “apparent K (half saturation)” value amounted to 1000 ± 82 nM.

B8: ARE-24 (ssRNA)
RNA: AUUUAUUUAUUAUUUAUUUAUUUA
Regarding B8, the “apparent K (half saturation)” value in series [7] amounted to 265 ± 31 nM.

B9: P2AtoG (ssRNA)
RNA: B1 RNA with A14G, C18A
On to B9, for which the “apparent K (half saturation)” value in series [1] amounted to 376 ± 12 nM.

B10: P5AtoC (ssRNA)
RNA: B1 RNA with A17C, C18A
On to B10, for which the “apparent K (half saturation)” value in [8] amounted to 278 ± 29 nM.

B11: Least freq fl (UCG flanks) (ssRNA)
RNA: UCUCACUUUUCGAAUAAAUCGCAUGCUUAU
Regarding B11, the “apparent K (half saturation)” value in [9] was 309 ± 25 nM.

B12: ARE-38 (ssRNA)
RNA: GUGAUUAUUUAUUAUUUAUUUAUUAUUUAUUUAUUUAG
For the molecule B12, the “apparent K (half saturation)” value in [10] is 141 ± 5 nM.

B13: P2AtoU (ssRNA)
RNA: B1 RNA with A14U, C18A
Consider B13, for which the “apparent K (half saturation)” value in [8] stood at 207 ± 0.6 nM.

B14: ATHA (α-thalassemia) (ssRNA)
RNA: B1 RNA with C18G
As to B14, the “apparent K (half saturation)” value in series [5] worked out at 135 ± 6.3 nM.

B15: α-syn24 (labeled) (ssRNA)
RNA: CACUUUAAUAAUAAAAAUCAUGCU
B15: the binding result in series [11] is listed as “binds”.

B16: LUPUS (ssRNA)
RNA: B1 RNA with A17G, C18A
Consider B16, for which the binding result in series [3] was “no binding”.

B17: IPEX (ssRNA)
RNA: B1 RNA with A16G, C18A
On to B17, for which, in [3], the binding result is given as “no binding”.

B18: BTHA (β-thalassemia) (ssRNA)
RNA: B1 RNA with U15C, C18A
Turning to B18, the “apparent K (half saturation)” value in [4] came to 148 ± 9 nM.

B19: ARE-20 (ssRNA)
RNA: UUUAUUAUUUAUUUAUUUAG
As for B19, the “apparent K (half saturation)” value in series [4] came out at 499 ± 37 nM.
